Experimental findings from patent US20030109416A1 (MOCHIDA PHARMACEUTICAL, published 2003) are described below.

The assay has as its target T1, extracellular domain of the human Fas ligand (produced in Pichia pastoris GS115) (human, UniProt P48023 103-281).
T1 construct: extracellular domain; also called human Fas ligand extracellular domain
T1 sequence (looked up): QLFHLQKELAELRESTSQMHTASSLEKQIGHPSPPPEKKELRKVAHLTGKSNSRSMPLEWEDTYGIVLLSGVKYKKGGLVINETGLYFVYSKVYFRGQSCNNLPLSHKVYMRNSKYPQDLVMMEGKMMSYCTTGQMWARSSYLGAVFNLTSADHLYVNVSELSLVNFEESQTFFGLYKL
In words: affinity chromatography on immobilized hFas-Fc.

B1: hFas-Fc (chimeric protein of the extracellular domain of the human Fas antigen and Fc region of human IgG1) (Fc fusion, UniProt P25445 26-173, looked up)
chain: QVTDINSKGLELRKTVTTVETQNLEGLHHDGQFCHKPCPPGERKARDCTVNGDEPDCVPCQEGKEYTDKAHFSSKCRRCRLCDEGHGLEVEINCTRTQNTKCRCKPNFFCNSTVCEHCDPCTKCEHGIIKECTLTSNTKCKEEGSRSN
notes: extracellular domain; The construct limits are only in WO 95/13293; also called human Fas-Fc; product of plasmid pBF-Fc1; not shown: Fc region of human IgG1
For the molecule B1, the binding result is recorded as “binds”.
